We go through seven molecules from patent US20230414780A1 (VECT HORUS, published 2023).

Experiment [1] addresses T1, mouse transferrin receptor (mTfR) fused to EGFP, on CHO cells (mouse, UniProt Q62351 1-763).
T1 construct: whole, on cells; also called mouse TfR; CHO-mTfR-EGFP; not shown: EGFP
Briefly: flow cytometry, CHO cells. How it is done: (§1) The binding properties of VHHs with affinity for the TfR from different species (i.e., human (h), mouse (m) and rhesus monkey (rh)) were tested using flow cytometry, and apparent affinities (Kd app) were determined. All experiments were performed in 96 well plates using 2×10⁵ cells/well, at 4° C. with shaking. CHO cell lines expressing the hTfR, mTfR or rhTfR fused to EGFP were saturated with PBS/BSA 2% solution during 30 min to avoid nonspecific binding, followed by incubation with purified VHHs at increasing concentrations for 1 hr. After one wash in PBS/BSA 2%, cells were incubated for 1 hr with an anti-6His tag antibody (mouse), washed twice with PBS/BSA 2%, and incubated for 1 hr with an Alexa647-conjugated anti-mouse secondary antibody. After two last washes in PBS/BSA 2%, cells were fixed by incubation for 15 min with PBS/PFA 2%, washed once with PBS and finally resuspended in PBS. Fluorescence levels were assessed using an Attune NxT flow cytometer (Thermo Fisher Scientific). Experimental data were fitted with GraphPad Prism® software using a nonlinear fit to determine the apparent Kd constants. […] Table 5 hereafter summarizes apparent Kd obtained for the tested VHHs.
(In general: A flow cytometer gives signals particle by particle.)

The target in experiment [2] is T2, human transferrin receptor (hTfR) fused to EGFP, on CHO cells (human, UniProt P02786 1-760).
T2 construct: whole, on cells; also called human TfR; CHO-hTfR-EGFP; not shown: EGFP from pEGFP-C1 vector, fused to the N-terminal (intracellular) end of hTfR
In words: flow cytometry, CHO cells. Here is the method: as §1

The target in experiment [3] is T2, human transferrin receptor (hTfR) fused …. Briefly: competition flow cytometry on CHO-hTfR-EGFP cells, 4 C; VHH competitor in dilution series, phage-H1 tracer at EC80, anti-M13-A647. Here is the method:
FIGS. 17A-17D: Competition assays between VHHs and phage-VHHs. CHO-hTfR-EGFP cells were incubated 1 hr at 4° C. with VHHs (competitors) at increasing concentrations. Phage-VHHs (tracers) were then added at EC80 and incubated for 1 more hr. Phage-VHHs were detected with an anti-M13-A647 antibody (1/200). Fluorescence levels were assessed using flow cytometry. The ratio of fluorescence intensity for each point was normalized with the corresponding EGFP signal (receptor expression) and gave rise to the arbitrary unit. Data are presented as mean±SEM of independent experiments.
To evaluate whether selected VHHs compete one with the other for binding to the TfR receptor, competition assays using flow cytometry experiments were performed. All experiments were performed in 96 well plates using 2×10⁵ cells/well, at 4° C. with shaking. CHO cell line expressing the hTfR fused to EGFP was saturated with PBS/BSA 2% solution during 30 min to avoid nonspecific binding, followed by incubation with VHH (competitors) at increasing concentrations for 1 hr. Then, phage-VHHs (tracers) at EC80 were added and incubated 1 hr more. To detect the phage-VHHs, cells were washed twice with PBS/BSA 2% and incubated for 1 hr with an Alexa647-conjugated anti-M13 antibody. […] Fluorescence levels were assessed using an Attune NxT flow cytometer (Thermo Fisher Scientific). […]

Experiment [4] deals with T3, rhesus monkey transferrin receptor (rhTfR) fused to EGFP, on CHO cells (rhesus monkey).
T3 construct: whole, on cells; also called rhesus monkey TfR
Briefly: apparent Kd, flow cytometry, CHO cells. In short, it runs like this:
(§2)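 CHO cells expressing TfR-EGFP fusions, blocked in PBS/BSA 2%, then incubated with increasing VHH concentrations for 1 hr at 4° C. Bound VHH detected via anti-6His antibody and Alexa647 secondary, cells PFA-fixed, read by flow cytometry. Apparent Kd from nonlinear fit.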

Experiment [5] concerns the target T2, human transferrin receptor (hTfR) fused …. In words: apparent Kd, flow cytometry, CHO cells. In short, it runs like this:
as §2

The target in experiment [6] is T4, murine TfR expressed by murine neuroblastoma Neuro-2a cells (mouse, UniProt Q62351 1-763).
T4 construct: whole, on cells; also called mTfR (N2a cells)
Briefly: competition with C5-Alexa680 (100 nM) on living Neuro-2a cells, 3 hrs at 37 C, flow cytometry; Ki/app, mean ± SD. Here is the method: The binding of VHH-Oligo and VHH-hFc-Oligo conjugates to mTfR was evaluated using a competition assay on living cells expressing the receptor of interest, namely murine neuroblastoma Neuro-2a cells (N2a). N2a cells were grown in Dulbecco's Modified Eagle Medium (DMEM) GlutaMAX supplemented with 10% v/v FBS in 5% CO₂ at 37° C. Cells were seeded two days before experiments in 96-well plates at a density of 50.000 cells/well. […] Resuspended cells were transferred in a 96-deepwell plate (V-bottom) containing 1% fetal bovine serum (FBS)/0.02% sodium azide in phosphate-buffered saline (PBS) and then centrifuged for 5 min at 2000 rpm at 4° C. After removing the supernatant, 5 mM EDTA in D-PBS and 4% paraformaldehyde (PFA) (v/v 1:1) were added into wells to fix cells for 15 min at room temperature. PFA was removed by centrifugation (5 min, 3000 rpm, 4° C.) and cells were resuspended with 5 mM EDTA in D-PBS. Then the cellular A680-associated fluorescence signal was quantified using an Attune™ NxT flow cytometer (Thermo Fisher Scientific) equipped with Attune™ NxT v3.1.2. Experimental data (experimental triplicates) were fitted with GraphPad Prism® software using a nonlinear fit to determine the apparent Ki inhibition constants.

Experiment [7] has as its target T4, murine TfR expressed by murine …. In words: cell-based or functional assay.
The target of experiment [8] is T2, human transferrin receptor (hTfR) fused …. Briefly: apparent Kd, cell-based assay.
Experiment [9] has the same target. Briefly: cell-based assay on hTfR; Kd/app (the text, paragraph 408, gives 16.7 nM for this molecule).
For experiment [10] the target is unchanged. Briefly: apparent Kd, flow cytometry, CHO cells. The source holds these as a separate data set.
Experiment [11] deals with T1, mouse transferrin receptor (mTfR) fused …. Briefly: flow cytometry on CHO-mTfR-EGFP cells, 1 hr at 4 C, anti-6His + Alexa647 anti-mouse. Here is the method: (§3) (A) CHO-hTfR-EGFP and CHO-mTfR-EGFP cells were incubated 1 hr at 4° C. with various concentrations of VHHs, detected with a mouse anti-6His (1/1000) and an Alexa647-conjugated anti-mouse secondary antibody (1/400). Measurements were performed using flow cytometry. The ratio of fluorescence intensity for each point was normalized with the corresponding EGFP signal (receptor expression) and gave rise to the arbitrary unit. Data are presented as mean±SEM of 3 independent experiments. (B) Characteristics of VHHs: Molecular Weight (Da); Theoretical pI; Apparent Kd on human TfR (nM); Apparent Kd on mouse TfR (nM). Data are presented as mean±SEM of 3 independent experiments. NB: no binding, LB: low binding.
(§4) All experiments were performed in 96 well plates using 2×10⁵ cells/well, at 4° C. with shaking. CHO cell lines stably expressing the hTfR or the mTfR fused to EGFP or CHO WT cells were saturated with PBS/BSA 2% solution during 30 min to avoid non-specific binding, followed by incubation with purified VHHs at concentrations ranging from 50 μM to 5 μM for 1 hr. After one wash in PBS/BSA 2%, cells were incubated for 1 hr with an anti-6His tag antibody (mouse), washed twice with PBS/BSA 2%, and incubated for 45 min with an Alexa647-conjugated anti-mouse secondary antibody. […] Fluorescence levels were assessed using an Attune NxT Flow Cytometer (Thermo Fisher Scientific).

For experiment [12], the target named is T2, human transferrin receptor (hTfR) fused …. Briefly: flow cytometry on CHO-hTfR-EGFP cells, 1 hr at 4 C, anti-6His + Alexa647 anti-mouse; apparent Kd, mean ± SEM of 3 experiments. Here is the method:
as §3, §4

The target of experiment [13] is T1, mouse transferrin receptor (mTfR) fused …. Briefly: flow cytometry on CHO-mTfR-EGFP cells, 1 hr at 4 C, anti-6His + Alexa647 anti-mouse; apparent Kd, mean ± SEM of 3 experiments. Here is the method: as §3, §4
The target in experiment [14] is T2, human transferrin receptor (hTfR) fused …. In words: cell-based assay on hTfR; Kd/app (the text, paragraph 408, gives 25.6 nM for this molecule).

T2 sequence (P02786 whole entry, the tested form may be a part): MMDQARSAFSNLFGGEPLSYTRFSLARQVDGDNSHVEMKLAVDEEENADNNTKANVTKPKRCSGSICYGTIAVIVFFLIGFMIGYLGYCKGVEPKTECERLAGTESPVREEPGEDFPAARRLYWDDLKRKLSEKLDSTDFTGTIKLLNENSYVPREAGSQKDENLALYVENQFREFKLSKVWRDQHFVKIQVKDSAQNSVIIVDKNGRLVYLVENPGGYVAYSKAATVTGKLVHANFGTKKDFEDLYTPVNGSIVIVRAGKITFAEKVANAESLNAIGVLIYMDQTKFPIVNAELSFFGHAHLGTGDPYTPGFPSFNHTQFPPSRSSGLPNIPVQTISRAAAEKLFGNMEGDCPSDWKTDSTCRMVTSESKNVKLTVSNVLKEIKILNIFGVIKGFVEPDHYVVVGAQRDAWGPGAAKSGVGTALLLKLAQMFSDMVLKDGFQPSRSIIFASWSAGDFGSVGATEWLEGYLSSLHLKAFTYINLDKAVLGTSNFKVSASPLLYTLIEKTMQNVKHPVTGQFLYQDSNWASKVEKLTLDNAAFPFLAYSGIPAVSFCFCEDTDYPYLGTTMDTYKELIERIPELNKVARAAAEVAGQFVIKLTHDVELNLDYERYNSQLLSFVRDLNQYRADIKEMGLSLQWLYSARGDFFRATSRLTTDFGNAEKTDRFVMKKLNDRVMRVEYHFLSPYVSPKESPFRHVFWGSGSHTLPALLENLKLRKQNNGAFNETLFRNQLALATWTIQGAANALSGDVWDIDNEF
T1 sequence (Q62351 whole entry, the tested form may be a part): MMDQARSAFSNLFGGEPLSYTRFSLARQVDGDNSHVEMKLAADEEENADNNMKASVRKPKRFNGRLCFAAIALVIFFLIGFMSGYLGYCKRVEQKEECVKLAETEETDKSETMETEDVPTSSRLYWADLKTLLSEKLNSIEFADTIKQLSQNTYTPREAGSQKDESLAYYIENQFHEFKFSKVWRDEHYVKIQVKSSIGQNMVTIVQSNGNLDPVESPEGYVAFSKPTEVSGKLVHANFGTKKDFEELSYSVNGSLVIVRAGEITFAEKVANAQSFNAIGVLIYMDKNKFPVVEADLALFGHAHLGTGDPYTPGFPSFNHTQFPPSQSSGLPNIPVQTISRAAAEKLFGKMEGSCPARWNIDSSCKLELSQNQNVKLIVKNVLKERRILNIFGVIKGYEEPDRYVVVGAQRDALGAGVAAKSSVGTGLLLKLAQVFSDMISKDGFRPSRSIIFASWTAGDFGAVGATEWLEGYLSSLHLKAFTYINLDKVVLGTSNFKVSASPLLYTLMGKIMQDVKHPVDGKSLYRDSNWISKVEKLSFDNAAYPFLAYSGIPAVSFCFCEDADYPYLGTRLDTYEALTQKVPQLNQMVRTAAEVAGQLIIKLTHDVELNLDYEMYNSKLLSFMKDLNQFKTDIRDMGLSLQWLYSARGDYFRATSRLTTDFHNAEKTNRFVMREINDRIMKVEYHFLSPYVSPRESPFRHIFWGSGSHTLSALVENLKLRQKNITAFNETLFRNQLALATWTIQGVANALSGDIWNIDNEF
T4 sequence (Q62351 whole entry): as the sequence (Q62351 whole entry, the tested form may be a part) above

B1: D12 (neg ctrl) (VHH)
VHH: EVQLVESGGGLVQPGGSLRLSCAASGFTFGSYVMSWVRQAPGKGPEWVSTVSSGGGTTYYADSVKGRFTISRDNAQNTLYLQMNSLKPEDTAVYYCATGRTGLGEGDHRGQGTQVTSSAAAEQKLISEEDLNGAAHHHHHHGS
notes: also called control VHH D12
B1: the binding result in experiment [1] and in experiment [2] was “no binding” each time.

B2: E8 (VHH)
VHH: EVQLVESGGRLVQAGGSLRLSCTASGLAFSTHTMHWFRQAPGKEREFVGAIRWSDEDTEYADSVKGRFTISRDNAKSTVYLQMNNLKPEDTAVYYCAAARGVGTSGHMKYWGQGTQVTVSS
For the molecule B2, in experiment [3], the “IC50 (read off the curve)” value was around 0.04 µM. For the same molecule, the Kd in [4] was determined as 0.0021 µM; in experiment [5], 0.0034 µM. Also, the binding result in experiment [1] is reported as “no binding”.

B3: C5-siSOD1m-5'VP (VHH, not shown: small tags and cut ends)
VHH: EVQLVESGGGVVQPGGSLKLSCVASGTDFSINFIRWYRQAPGKQREFVAGFTATGNTNYADSMKGRFTISRDNTKNAVYLQIDSLKPEDTAVYYCYMLDKWGQGTQVTVSS
modifications: siSOD1m-5'VP siRNA duplex linked by a stable linker (azide/alkyne click) to the VHH
notes: also called VHH-siSOD1m-5'VP wherein VHH is C5
Turning to B3, the Ki in [6] is 0.164 µM. Also, in [7], the “IC50 of mSOD1 mRNA downregulation, free uptake on Neuro-2a cells” value amounted to 0.0074 µM.

B4: C5V30-NT(8-13) (VHH)
VHH: EVQLVESGGGVVQPGGSLKLSCVASGTDKSINFIRWYRQAPGKQREFVAGFTATGNTNYADSMKGRFTISRDNTKNAVYLQIDSLKPEDTAVYYCYMLDKWGQGTQVTVSS
On to B4, for which the Kd in experiment [8] was 0.0167 µM; in [9] it was 0.0256 µM.

B5: VHH A7 (C5^V7) (VHH)
VHH: EVQLVESGGGVVQPGGSLKLSCVASGTDFSINFIRWYRQAPGKQREFVAGFTATGNTNYADSMKGRFTISRDNTKNAVYLQIDSLKPEDTAVYYCYMADKWGQGTQVTVSS
For B5, the Kd in experiment [10] came to 0.255 µM. The binding result in experiment [11] is on record as “binds”.

B6: VHH A6 (C5^V6) (VHH)
VHH: EVQLVESGGGVVQPGGSLKLSCVASGTDFSINFIRWYRQAPGKQREFVAGFTATGNTNYADSMKGRFTISRDNTKNAVYLQIDSLKPEDTAVYYCYALDKWGQGTQVTVSS
B6: the values for the Kd in experiment [12], in experiment [10] and in [13] were 0.0034 µM, 0.003 to 0.004 µM and 0.182 µM, respectively.

B7: B8V31-NT(8-13) (VHH)
VHH: EVQLVESGGGVVQPGGSLRLSCAASGEIKSINFMRWYRQAPGKQREWVAGFTRDGSTNYPDSAKGRFTISRDNAKNTVYLQIDSLKPEDTAVYYCYMLDTWGQGTQVTVSS
In the case of B7, the values for the Kd in experiment [8] and in experiment [14] were 0.0256 µM and 0.0167 µM, respectively.
